This is an account of results in patent publication US20190309084A1 (ALLIGATOR BIOSCIENCE, published 2019).

Test [1] concerns the target T1, GITR-hFc (R&D Systems, #689-GR) (human, UniProt Q9Y5U5 26-161).
T1 construct: Bought; also called Human GITR (coated in ELISA plates); not shown: human Fc part of a bought fusion protein
T1 sequence: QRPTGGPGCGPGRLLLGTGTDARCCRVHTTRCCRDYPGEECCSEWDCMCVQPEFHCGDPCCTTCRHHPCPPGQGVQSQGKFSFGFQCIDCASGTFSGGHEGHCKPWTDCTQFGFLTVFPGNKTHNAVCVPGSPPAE
Kind of test: dual ELISA: GITR-hFc coated, bispecific titrated, biotinylated CTLA-4-mFc then streptavidin-HRP, luminescence.

Test [2] concerns the target T2, Human GITR (Acro Biosystems, #GIR-H5228) (human, UniProt Q9Y5U5 26-161).
T2 construct: Bought recombinant protein, amine-coupled to the sensor tips; also called hGITR
T2 sequence: T1 sequence
In words: BLI (Octet RED96), GITR amine-coupled to AR2G tips, bispecific as analyte, 1:1 fit. A general note: Biolayer interferometry detects binding as a change in optical thickness at a sensor tip.

In test [3] the target is T1, GITR-hFc (R&D Systems, #689-GR). In words: dual ELISA: GITR-hFc coated, bispecific titrated, detected with biotinylated CTLA-4-mFc + streptavidin-HRP (signal needs binding to both targets); afucosylated IgG1; dual ELISA, signal needs both GITR and CTLA-4. In general terms: In an ELISA, binding on a coated surface is turned into a signal by an enzyme label.
The target of test [4] is T3, human CTLA-4 (ACRO Biosystems, #CT4-H5229) (human, UniProt P16410 38-152).
T3 construct: Bought recombinant protein, used as analyte in solution; also called hCTLA-4
T3 sequence (P16410 38-152 limits assumed): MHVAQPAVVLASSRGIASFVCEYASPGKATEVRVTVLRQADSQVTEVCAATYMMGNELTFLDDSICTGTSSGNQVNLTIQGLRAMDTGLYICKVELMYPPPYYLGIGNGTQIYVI
Kind of test: BLI (Octet RED96), bispecific captured on anti-hIgG Fc (AHC) tips, hCTLA-4 as analyte, 1:1 fit.

For test [5], the target named is T1, GITR-hFc (R&D Systems, #689-GR). In words: dual ELISA: GITR-hFc coated, bispecific titrated, detected with biotinylated CTLA-4-mFc + streptavidin-HRP (signal needs binding to both targets); wildtype IgG1; dual ELISA, signal needs both GITR and CTLA-4.

Residue numbers refer to the chain shown, from its start.

The EC50 (read off the curve) is the concentration at which the effect is half-maximal. As usually defined, the Kd is the constant that tells how readily two partners part at equilibrium. High values mean lower affinity, low ones higher affinity. As usually defined, the koff is a measure of how fast the partners let go of each other. High values mean fast dissociation, low ones slow dissociation. A word on the kon: it is the rate constant with which the complex forms. A word on the EC50: it is the concentration that produces a half-maximal response.

B1: GITR/CTLA-4 bispecific antibody 2348/2349 (bispecific antibody)
VH: EVQLLESGGGLVQPGGSLRLSCAASGFTFGYYYMSWVRQAPGKGLEWVSGISSPSSYTYYADSVKGRFTISRDNSKNTLYLQMNSLRAEDTAVYYCARYYGSYFDYWGQGTLVTVSS
light: DIQMTQSPSSLSASVGDRVTITCRASQAISAYLNWYQQKPGKAPKLLIYAASSLQSGVPSRFSGSGSGTDFTLTISSLQPEDFATYYCQQSYGYYLYTFGQGTKLEIKRTVAAPSVFIFPPSDEQLKSGTASVVCLLNNFYPREAKVQWKVDNALQSGNSQESVTEQDSKDSTYSLSSTLTLSKADYEKHKVYACEVTHQGLSSPVTKSFNRGECSGGGGSGGGGSAPLKIQAYFNETADLPCQFANSQNLSLSELVVFWQDQENLVLNEVYLGKERFDSVDSKYMGRTSFDSDSWTLRLHNLQIKDKGRYQCIIHHKKPTGMINIHQMNSELSVLA
notes: Anti-GITR IgG with CD86 mutant 1040 fused to the C-terminus of the kappa chain
Regarding B1, the “EC50 (read off the curve)” value in test [1] was ~1 nM. In test [2], this molecule displayed a dissociation constant (Kd) of 0.346 nM, a koff of 5.28e-05 s⁻¹ and a kon of 153000 M⁻¹ s⁻¹.

B2: GITR/CTLA-4 bispecific antibody 2372/2373, afucosylated IgG1 format (bispecific antibody)
VH: EVQLLESGGGLVQPGGSLRLSCAASGFTFSGYSMGWVRQAPGKGLEWVSAISGSGGSTYYADSVKGRFTISRDNSKNTLYLQMNSLRAEDTAVYYCARYPWGYYFDYWGQGTLVTVSS
light: B1 light with A28G, S30R, A51V, S91Y, G93Y, Y94P, Y95P, Y97S
modifications: afucosylated Fc domain
In the case of B2, the 50% effective concentration (EC50) in test [3] turned out to be 0.54 nM.

B3: GITR/CTLA-4 bispecific antibody 2372/2373, wildtype IgG1 format (bispecific antibody)
VH: B2 VH
light: B1 light with A28G, S30R, A51V, S91Y, G93Y, Y94P, Y95P, Y97S
As to B3, in test [4], the affinity, expressed as Kd, was 2.9 nM; the koff worked out at 0.000551 s⁻¹; the kon came to 190000 M⁻¹ s⁻¹. For the same molecule, in test [1], the “EC50 (read off the curve)” value is ~0.5 nM. In test [2], this molecule had an equilibrium dissociation constant (Kd) of 0.608 nM, a koff of 0.000214 s⁻¹ and a kon of 351000 M⁻¹ s⁻¹. The concentration giving a half-maximal response (EC50) in test [5] stood at 0.64 nM.

B4: GITR/CTLA-4 bispecific antibody 2404/2405 (bispecific antibody, IgG1)
VH: EVQLLESGGGLVQPGGSLRLSCAASGFTFSYSSMSWVRQAPGKGLEWVSYIGSGGSHTYYADSVKGRFTISRDNSKNTLYLQMNSLRAEDTAVYYCARYSYYFDYWGQGTLVTVSS
light: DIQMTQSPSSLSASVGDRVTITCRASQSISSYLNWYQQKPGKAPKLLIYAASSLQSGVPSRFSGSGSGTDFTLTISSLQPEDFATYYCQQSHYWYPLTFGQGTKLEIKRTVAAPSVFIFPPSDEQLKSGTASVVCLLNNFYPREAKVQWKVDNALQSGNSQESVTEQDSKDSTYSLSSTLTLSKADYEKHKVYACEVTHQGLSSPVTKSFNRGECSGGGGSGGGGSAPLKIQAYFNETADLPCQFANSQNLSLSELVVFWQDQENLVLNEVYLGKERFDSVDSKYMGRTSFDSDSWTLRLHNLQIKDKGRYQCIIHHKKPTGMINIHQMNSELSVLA
On to B4, for which, in test [1], the “EC50 (read off the curve)” value is ~0.6 nM. Further, in test [2], the Kd was found to be 1.67 nM, the koff turned out to be 0.000423 s⁻¹ and the kon is 254000 M⁻¹ s⁻¹.
